Source: patent publication US20100015654A1 (INSTITUT DE RECHERCHES CLINIQUES DE MONTREAL I R C M, published 2010)

What was measured:
mouse CD84 = molecular target: T1, mouse CD84 (mouse, UniProt Q18PI6 22-329); assay: co-immunoprecipitation from IL-2-activated mouse NK cells, anti-CD84 immunoblot
T1 construct: whole, on cells; Endogenous protein in NK cell lysates
T1 sequence (looked up): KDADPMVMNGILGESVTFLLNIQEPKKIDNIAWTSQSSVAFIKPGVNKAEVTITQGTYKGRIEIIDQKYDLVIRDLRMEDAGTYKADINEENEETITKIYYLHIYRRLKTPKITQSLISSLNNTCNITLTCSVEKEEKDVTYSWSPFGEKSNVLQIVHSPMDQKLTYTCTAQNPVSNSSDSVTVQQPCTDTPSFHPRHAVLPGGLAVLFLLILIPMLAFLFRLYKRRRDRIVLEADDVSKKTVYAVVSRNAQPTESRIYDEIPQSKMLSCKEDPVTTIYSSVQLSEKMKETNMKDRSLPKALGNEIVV
Text: (§1) Association of phosphotyrosine-containing proteins with SAP-related adaptors in mouse NK cells. The indicated SAP-related adaptors were immunoprecipitated from IL-2-activated mouse NK cells, resolved in 8% gels and probed by immunoblotting with anti-phosphotyrosine (P.tyr). The anti-EAT-2 MAbs used for immunoprecipitation react with both EAT-2 and ERT. Anti-CD4 MAb GK1.5 was used as control antibody. IgH: heavy chain of IgG. Efficient immunoprecipitation of the SAP-related adaptors was verified by probing parallel immunoprecipitates with anti-EAT-2/ERT and anti-SAP (data not shown). b. Association of 2B4 with SAP-related adaptors in NK cells. Immunoprecipitates of SAP family adaptors were reprobed by immunoblotting with anti-2B4 (top panels), anti-CRACC (middle panels) and anti-CD84 (bottom panels). The migration of the various SLAM-related receptors was verified by immunoblotting of total cell lysates with the specified antibodies (lane 5).
(§2) Mouse NK cells express three SLAM-related receptors, 2B4, CRACC and CD84, that have apparent molecular masses between 60 and 70 kDa (our unpublished results). To determine if the 70 kDa-tyrosine phosphorylated protein associated with SAP family adaptors was any of these SLAM-related receptors, immunoprecipitates of SAP-related adaptors were probed by immunoblotting with antibodies against each of these SLAM family members (FIG. 5b). […]

mouse CRACC = molecular target: T2, mouse CRACC (mouse, UniProt Q8BHK6 23-333); assay: co-immunoprecipitation from IL-2-activated mouse NK cells, anti-CRACC immunoblot
T2 construct: whole, on cells; Endogenous protein in NK cell lysates
T2 sequence (looked up): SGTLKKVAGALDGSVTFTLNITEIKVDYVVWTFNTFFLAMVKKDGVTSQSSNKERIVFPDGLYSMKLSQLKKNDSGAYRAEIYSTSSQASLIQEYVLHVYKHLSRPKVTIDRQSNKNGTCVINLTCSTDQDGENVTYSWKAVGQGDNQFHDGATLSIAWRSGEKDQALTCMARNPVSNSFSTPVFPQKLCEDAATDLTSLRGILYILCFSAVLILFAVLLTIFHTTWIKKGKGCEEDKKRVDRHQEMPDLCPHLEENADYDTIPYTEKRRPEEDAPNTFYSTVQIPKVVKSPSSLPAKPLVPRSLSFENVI
Text: as §1, §2

mouse CD16 = molecular target: T3, mouse CD16 (mouse, UniProt P08508 31-261); assay: co-immunoprecipitation from IL-2-activated mouse NK cells (data not shown)
T3 construct: whole, on cells; Endogenous protein in NK cell lysates
T3 sequence (looked up): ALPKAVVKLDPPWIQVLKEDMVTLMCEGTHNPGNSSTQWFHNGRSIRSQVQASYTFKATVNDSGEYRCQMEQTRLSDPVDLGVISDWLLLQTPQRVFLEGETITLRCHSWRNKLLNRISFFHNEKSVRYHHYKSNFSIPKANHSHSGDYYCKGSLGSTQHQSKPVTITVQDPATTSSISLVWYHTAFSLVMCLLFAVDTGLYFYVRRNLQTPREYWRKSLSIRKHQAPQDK

binding result (mouse CD84): no binding
binding result (mouse CRACC): no binding
binding result (mouse CD16): no binding
B1: mouse SAP (other, UniProt O88890 1-126, looked up)
chain: MDAVTVYHGKISRETGEKLLLATGLDGSYLLRDSESVPGVYCLCVLYQGYIYTYRVSQTETGSWSAETAPGVHKRFFRKVKNLISAFQKPDQGIVTPLQYPVEKSSGRGPQAPTGRRDSDICLNAP
notes: Intracellular adaptor made of an SH2 domain and a short tail
